Results taken from the DeepSol protein solubility set.

assay: soluble on expression in E. coli; label from the status in PepcDB or PDB records

| Sequence | soluble on expression in E. coli |
| --- | --- |
| MLLDFPHGQFGFTNSCIIAVIWLSLSPTLNRGQLNLDRFKFWLPTSQLLVLDVCLFDAFALEHHHHHH | not soluble |
| MKGKNNMSRIIVVTSGKGGVGKTTSSAAIASGLALRGKKTAVIDFDIGLRNLDLIMGCERRVVYDFVNVINGEATLNQALIKDKRNENLFILPASQTRDKDALTKDGVQRVLNDLKEMGFDFIICDSPAGIEQGALMALYYADEAIVTTNPEVSSVRDSDRILGILDSKSMRAEQGQAPIKQHLLLTRYNPARVTQGEMLSVQDVEEILHVPLLGVIPESQAVLNASNKGVPVIFDDQSDAGQAYQDTVARLLGEQVEFRFLTEAKKGIFKRLFGG | not soluble |
| MGSDKIHHHHHHMKISEFEGPLDLLLHLIRQNKMDIYDIPIAAITQQYLDYLHSMRALKLDIAGDYLVMAATLMTIKSRFLLPQPEPDEMDEDNEDDDPRDSLVAELLAYKVYQEAAGELREKEQARHQHFTREAMLVPADLSAPKLTAGITLDDLQAAFRQLVAKRRRVRPLTKTVVAETINIDERMTQITTQLQHQPQGLDFADLFTVSASDEMLVTTFMAVLELTKQDQVALQQAEPLSPIHLYLRQDEQHDEH | not soluble |
| MNPFQKIKSAVNKRQRFFINRTLQRKLTNQGMTVISANCVGAFILHDLHQPFNSPFVNLYLSPQDFLRYLQNIDFYLTQPLTFVQTEKSYPVGKLADLEIHFMHYHSEQEANEKWQLRTSRMKLDNLFIMMTDRDGVTEKDIQLFDQLPFKNKVIFTHKPYPAFKSAYYIKGFEKQNQVGDIFEFSGWNGKKYYDQFDYVKWFNHA | not soluble |
| MGSDKIHHHHHHMKFSLGPILYFWPKQQVFDFYQQAAESDVEHVYLGETVCSKRRELKLDDYLAIAHMLREAGKKVTLSTMTLLEAPAELRELGKYCDNGEFDVEANDVSAIGVLQEQGLNFTAGPGINIYNHQSLRRLIDMGMTRWVVPFELSRDWLQDVLQHNLIDTVRDCFDVEVFSFGHIPLAWSGRCFTARSENRPKDQCELCCIKYPEGREVKSQEGQQVFVLNGIQTQSGTRYNLINQLPGMNGLVDIVRISPQPEGTFDWLQRFRSNINGEHPVTLTSKENNGYWLQLAGLATG | not soluble |
| MGSDKIHHHHHHMENIMLQEIELKLAISPQIGIELPQYLAKFTILEHQNLFLGNTYYDYPDHFLAKQKMGLRIRQEDQELTLTLKTNGKVVSGLHSRPEYNLPLIEKETPTNAQLRGLYPFEQLPSSTLQPIFSTDFNRTFWLVEFQQSKIEVAFDQGKIIAGEYEQPISEIEFELKSGNVQDLFDFVETLPFERDIYFSSASKAKRGYLLGSKQFLTDWLNKWRDFLKEEREESAVDFCAKFNAVLKMEQKLLEETLSFSPTLFSQDFMKTVERVGAFFNLYHYYDENGKILEAMATEKQKETRLPALLESNQKIFVEIRDLIRFHSETKDNEKTIEKLTALLKSRVYFERMIKLMELSYDLG | not soluble |
| MGSDKIHHHHHHMHNVDQQELSKFEQMAHSWWDPNGSFKPIHLLNPLRFNYIQTKANGLFGKKVLDVGCGGGILSEAMAQAGAIVTGIDMTTEPLEIAKQHAIENGLTIHYQQTTVEDLRLNHTACNAEKFDVVTCMEMLEHVPDPLSVIQSCKALLKPDGVLFLSTINRTLKAYMLVVIGAEYLLKMLPKGTHEFEKFIKPAELLTWCDQASLECKEMKGYHFNPLTEKFWLNNDVSCNYIAMLKAK | not soluble |
| MGLSDWELAAARAAIARGLDEDLRYGPDVTTLATVPASATTTASLVTREAGVVAGLDVALLTLNEVLGTNGYRVLDRVEDGARVPPGEALMTLEAQTRGLLTAERTMLNLVGHLSGIATATAAWVDAVRGTKAKIRDTRKTLPGLRALQKYAVRTGGGVNHRLGLGDAALIKDNHVAAAGSVVDALRAVRNAAPDLPCEVEVDSLEQLDAVLPEKPELILLDNFAVWQTQTAVQRRDSRAPTVMLESSGGLSLQTAATYAETGVDYLAVGALTHSVRVLDIGLDM | soluble |
